K (analogous to the dissociation constant of microclusters) data for one substance are collected here from publication PMC2172602.

This test concerns the target αL-YFP/β2 (LFA-1 with dimerizing YFP on αL) on K562 cells (UniProt P20701). The test can be described thus: FRET or BRET.
Sequence of UniProt P20701 (P20701 whole entry, looked up): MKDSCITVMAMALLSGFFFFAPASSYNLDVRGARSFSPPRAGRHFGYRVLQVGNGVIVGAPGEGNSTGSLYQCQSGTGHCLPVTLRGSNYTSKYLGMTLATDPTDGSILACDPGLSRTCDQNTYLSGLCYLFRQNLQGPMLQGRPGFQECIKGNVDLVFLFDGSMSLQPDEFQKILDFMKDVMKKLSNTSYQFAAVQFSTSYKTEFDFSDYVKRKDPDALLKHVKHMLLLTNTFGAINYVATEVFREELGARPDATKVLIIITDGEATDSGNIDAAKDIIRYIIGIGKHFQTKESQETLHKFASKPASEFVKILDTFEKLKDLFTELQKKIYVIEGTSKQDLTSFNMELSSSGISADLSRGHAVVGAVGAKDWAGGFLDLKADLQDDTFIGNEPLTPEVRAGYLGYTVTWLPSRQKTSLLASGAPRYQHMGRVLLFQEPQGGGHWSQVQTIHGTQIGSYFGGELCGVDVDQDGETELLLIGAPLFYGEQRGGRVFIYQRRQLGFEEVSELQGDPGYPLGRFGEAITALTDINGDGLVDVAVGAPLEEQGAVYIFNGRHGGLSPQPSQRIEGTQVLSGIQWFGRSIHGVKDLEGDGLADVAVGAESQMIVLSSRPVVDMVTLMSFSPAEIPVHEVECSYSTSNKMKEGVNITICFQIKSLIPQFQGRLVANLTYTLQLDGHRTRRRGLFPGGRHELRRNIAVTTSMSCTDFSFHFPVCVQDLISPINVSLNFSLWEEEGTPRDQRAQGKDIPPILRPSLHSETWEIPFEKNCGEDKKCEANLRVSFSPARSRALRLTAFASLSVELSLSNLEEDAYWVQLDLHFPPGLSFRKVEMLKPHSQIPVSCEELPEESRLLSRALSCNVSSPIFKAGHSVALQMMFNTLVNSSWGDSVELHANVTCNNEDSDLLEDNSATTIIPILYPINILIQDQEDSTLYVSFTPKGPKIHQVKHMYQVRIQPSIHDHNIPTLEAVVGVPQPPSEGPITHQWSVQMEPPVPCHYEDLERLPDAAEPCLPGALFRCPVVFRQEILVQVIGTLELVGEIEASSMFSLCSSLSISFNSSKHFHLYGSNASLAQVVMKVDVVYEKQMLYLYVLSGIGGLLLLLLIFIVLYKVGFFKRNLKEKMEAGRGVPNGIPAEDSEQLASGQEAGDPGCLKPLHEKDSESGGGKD

The substance “αL-CFP/β2 (LFA-1 with dimerizing CFP on αL) on K562 cells (from UniProt P20701 26-1170; P05107 23-769) (receptor)” came in with a K (analogous to the dissociation constant of microclusters) of 532.
